Assay results published in US20210155676A1 (published 2021).

Each binder was assayed against gp120 (assay: ELISA; geometric mean over gp120 from 7 HIV strains).

Binder	EC50 [nM]
PGT121.60 (antibody) heavy: QMQLQESGPGLVKPSETLSLTCSVSGASISDSYWSWIRRSPGKGLEWIGYVHKSGDTNYNPSLKSRVHLSLDTSKNQVSLSLTGVTAADSGKYYCARTLHGRRIYGIVAFNEWFTYFYMDVWGTGTQVTVSSASTKGPSVFPLAPSSKSTSGGTAALGCLVKDYFPEPVTVSWNSGALTSGVHTFPAVLQSSGLYSLSSVVTVPSSSLGTQTYICNVNHKPSNTKVDKKVEPKSCDKTHTCPPCPAPELLAGPDVFLFPPKPKDTLMISRTPEVTCVVVDVSHEDPEVKFNWYVDGVEVHNAKTKPREEQYNSTYRVVSVLTVLHQDWLNGKEYKCKVSNKALPLPEEKTISKAKGQPREPQVYTLPPSREEMTKNQVSLTCLVKGFYPSDIAVEWESNGQPENNYKTTPPVLDSDGSFFLYSKLTVDKSRWQQGNVFSCSVLHEALHSHYTQKSLSLSPGK light: not shown	1.79
PGT121.65 (antibody, V domains shown) VH: QLQLQESGPGLVKPSETLSLTCSVSGASISDAYWSWIRRSPGKGLEWIGYVHKSGDTNYNPSLKSRVHLSLDTSKNQVSLSLTGVTAADSGKYYCARALHGRRIYGIVAFNEWFTYFYMDVWGTGTQVTVSS VL: SDISVAPGETARISCGEKSLGSRAVQWYQHRAGQAPSLIIYNNQDRPSGIPERFSGSPDSRPGTTATLTITSVEAGDEADYYCHIWDSRVPTKWVFGGGTKLTVLG	2.14

Now those with a lower EC50, led by results:

EC50 [nM]	Binder
1.65	PGT121.61 (antibody) heavy: QMQLQESGPGLVKPSETLSLTCSVSGASISDSYWSWIRRSPGKGLEWIGYVHKSGDTNYNPSLKSRVHLSLDTSKNQVSLSLTGVTAADSGKYYCARTLHGRRIYGIVAFNEWFTYFYMDVWGTGTQVTVSSASTKGPSVFPLAPSSKSTSGGTAALGCLVKDYFPEPVTVSWNSGALTSGVHTFPAVLQSSGLYSLSSVVTVPSSSLGTQTYICNVNHKPSNTKVDKKVEPKSCDKTHTCPPCPAPELLAGPDVFLFPPKPKDTLMISRTPEVTCVVVDVSHEDPEVKFNWYVDGVEVHNAKTKPREEQYNSTYRVVSVLTVLHQDWLNGKEYKCKVSNKALPLPEEKTISKAKGQPREPQVYTLPPSREEMTKNQVSLTCLVKGFYPSDIAVEWESNGQPENNYKTTPPVLDSDGSFFLYSKLTVDKSRWQQGNVFSCSVLHEALHSHYTQKSLSLSPGK light: SDISVAPGETARISCGEKSLGSRAVQWYQHRAGQAPSLIIYNNQDRPSGIPERFSGSPDSRPGTTATLTITSVEAGDEADYYCHIWDSRVPTKWVFGGGTKLTVLGQPKAAPSVTLFPPSSEELQANKATLVCLISDFYPGAVTVAWKADSSPVKAGVETTTPSKQSNNKYAASSYLSLTPEQWKSHRSYSCQVTHEGSTVEKTVAPTECS
1.57	PGT121.42 (antibody, V domains shown) VH: QMQLQESGPGLVKPSETLSLTCSVSGASISDSYWSWIRRSPGKGLEWIGYVHKSGDTNYNPSLKSRVHLSLDTSKNQVSLSLSSVTAADSGKYYCARTLHGRRIYGIVAFNEWFTYFYMDVWGKGTQVTVSS VL: SDISVAPGETARISCGEKSLGSRAVQWYQHRAGQAPSLIIYNNQDRPSGIPERFSGSPDSPFGTTATLTITSVEAGDEADYYCHIWDSRVPTKWVFGGGTTLTVLG
